Test [1] addresses Clone #14. Kind of test: MSD-SET; Fab.
In test [2] the target is Clone #1. Description: MSD-SET; Fab.
Test [3] addresses Clone #20. Description: MSD-SET; Fab.
The target in test [4] is Clone #15. Description: MSD-SET; Fab.
Test [5] has as its target Clone #13. Kind of test: MSD-SET; Fab.
For test [6], the target named is Clone #17. Kind of test: MSD-SET; Fab.
Test [7] deals with Clone #18. Kind of test: MSD-SET; Fab.
Test [8] addresses Clone #5. Kind of test: BLI (ForteBio Octet); IgG, monovalent. A general note: In BLI a coated tip is dipped into the sample, and binding shifts an interference pattern.
In test [9] the target is Clone #10. Description: BLI (ForteBio Octet); IgG, monovalent.
In test [10] the target is Clone #12. Kind of test: BLI (ForteBio Octet); IgG, monovalent.
The target in test [11] is Clone #8. Description: BLI (ForteBio Octet); IgG, monovalent.
Test [12] deals with Clone #14. Kind of test: BLI (ForteBio Octet); IgG, monovalent.
The target in test [13] is Clone #9. Description: BLI (ForteBio Octet); IgG, monovalent.
Test [14] concerns the target Clone #1. Kind of test: BLI (ForteBio Octet); IgG, monovalent.
For test [15], the target named is Clone #20. Description: BLI (ForteBio Octet); IgG, monovalent.
Test [16] concerns the target Clone #6. Kind of test: BLI (ForteBio Octet); IgG, monovalent.
Test [17] has as its target Clone #16. Kind of test: BLI (ForteBio Octet); IgG, monovalent.
The target of test [18] is Clone #3. Kind of test: BLI (ForteBio Octet); IgG, monovalent.
In test [19] the target is Clone #15. Description: BLI (ForteBio Octet); IgG, monovalent.
Test [20] addresses Clone #7. Kind of test: BLI (ForteBio Octet); IgG, monovalent.
The target of test [21] is Clone #13. Kind of test: BLI (ForteBio Octet); IgG, monovalent.
Test [22] addresses Clone #17. Kind of test: BLI (ForteBio Octet); IgG, monovalent.
Test [23] concerns the target Clone #2. Kind of test: BLI (ForteBio Octet); IgG, monovalent.
For test [24], the target named is Clone #4. Description: BLI (ForteBio Octet); IgG, monovalent.
Test [25] addresses Clone #19. Kind of test: BLI (ForteBio Octet); IgG, monovalent.
Test [26] concerns the target Clone #11. Kind of test: BLI (ForteBio Octet); IgG, monovalent.
For test [27], the target named is Clone #18. Description: BLI (ForteBio Octet); IgG, monovalent.

As usually defined, the Kd is the equilibrium constant for the complex coming apart. A low value points to a tighter complex.

B1: Biotinylated Human CD39-His (enzyme)
chain: TQNKALPENVKYGIVLDAGSSHTSLYIYKWPAEKENDTGVVHQVEECRVKGPGISKFVQKVNEIGIYLTDCMERAREVIPRSQHQETPVYLGATAGMRLLRMESEELADRVLDVVERSLSNYPFDFQGARIITGQEEGAYGWITINYLLGKFSQKTRWFSIVPYETNNQETFGALDLGGASTQVTFVPQNQTIESPDNALQFRLYGKDYNVYTHSFLCYGKDQALWQKLAKDIQVASNEILRDPCFHPGYKKVVNVSDLYKTPCTKRFEMTLPFQQFEIQGIGNYQQCHQSILELFNTSYCPYSQCAFNGIFLPPLQGDFGAFSAFYFVMKFLNLTSEKVSQEKVTEMMKKFCAQPWEEIKTSYAGVKEKYLSEYCFSGTYILSLLLQGYHFTADSWEHIHFIGKIQGSDAGWTLGYMLNLTNMIPAEQPLSTPLSHSTYV
B1: the Kd is 0.15 nM in [1]; 2.1 nM in test [2]; 0.61 nM in test [3]; 0.38 nM in test [4]; 0.17 nM in test [5]; 0.099 nM in test [6]. In test [7], this molecule came in with a Kd of 0.038 nM.

B2: Human CD39-His (enzyme)
chain: TQNKALPENVKYGIVLDAGSSHTSLYIYKWPAEKENDTGVVHQVEECRVKGPGISKFVQKVNEIGIYLTDCMERAREVIPRSQHQETPVYLGATAGMRLLRMESEELADRVLDVVERSLSNYPFDFQGARIITGQEEGAYGWITINYLLGKFSQKTRWFSIVPYETNNQETFGALDLGGASTQVTFVPQNQTIESPDNALQFRLYGKDYNVYTHSFLCYGKDQALWQKLAKDIQVASNEILRDPCFHPGYKKVVNVSDLYKTPCTKRFEMTLPFQQFEIQGIGNYQQCHQSILELFNTSYCPYSQCAFNGIFLPPLQGDFGAFSAFYFVMKFLNLTSEKVSQEKVTEMMKKFCAQPWEEIKTSYAGVKEKYLSEYCFSGTYILSLLLQGYHFTADSWEHIHFIGKIQGSDAGWTLGYMLNLTNMIPAEQPLSTPLSHSTYV
Consider B2, for which the Kd in test [8] came to 29.6 nM; in test [9], 37.3 nM; in test [10], 1.38 nM; in [11], 28.3 nM; in test [12] it was 1.25 nM; in test [13], 124 nM. Further, the Kd was 8.04 nM in [14]; 3.89 nM in test [15]; 177 nM in [16]; 3.81 nM in [17]; 3.25 nM in test [18]; 1.97 nM in test [19]. The equilibrium dissociation constant (Kd) in [20] turned out to be 94.3 nM; in test [21], 1.19 nM; in [22] it was 1.14 nM; in test [23], 11.6 nM; in test [24], 3.65 nM; in [25], 28.3 nM. Moreover, the Kd worked out at 14.7 nM in test [26] and 0.706 nM in test [27].

The values above are taken from patent US20210095041A1 (published 2021).
